± gives the uncertainty stated by the source.
Experiment: self-splicing fitness, log relative to wild type (ln ratio); higher = more splicing; Tetrahymena group I intron in knt gene, E. coli kanamycin selection, DiMSum; sequences stand for … in CUCUCU…GGAGGGAAAAGUUAUCAGGCAUGCACCUGGUAGCUAGUCUUUAAACCAAUAGAUUGCAUCGGUUUAAAAGGCAAGACCGUCAAAUUGCGGGAAAGGGGUCAACAGCCGUUCAGUACCAAGUCUCAGGGGAAACUUUGAGAUGGCCUUGCAAAGGGUAUGGUAAUAAGCUGACGGACAUGGUCCUAACCACGCAGCCAAGUCCUAAGUCAACAGAUCUUCUGUUGAUAUGGAUGCAGUUCACAGACUAAAUGUCGGUCGGGGAAGAUGUAUUCUUCUCAUAAGAUAUAGUCGGACCUCUCCUUAAUGGGAGCUAGCGGAUGAAGUGAUGCAACACUGGAGCCGCUGGGAACUAAUUUGUAUGCGAAAGUAUAUUGAUUAGUUUUGGAGUACUCGUGGUCG
Summary of the method: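 DiMSum derived fitness as the error-weighted combination of fold changes across replicates, kanamycin versus no kanamycin, normalised to wild type. E. coli BL21(DE3) held the library, which randomised all eight P1ex-region intron nucleotides within the knt kanamycin-resistance gene on pET-22b(+). Six replicate transformations grew overnight at 37°C or 30°C on LB agar with or without 25 μg/mL kanamycin, also containing 100 μg/mL carbenicillin, 50 μM IPTG and 0.2% rhamnose, and pooled colonies were amplicon-sequenced on an Illumina HiSeq 2500.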

| Sequence | self-splicing fitness (ln) (30 °C) | self-splicing fitness (ln) (37 °C) |
| --- | --- | --- |
| UAUCAGCAAUAUUACGUCCC | -2.83 ± 0.34 | 0.683 ± 0.26 |
| UAUCAGCAAUAUUACGUCUC | -2.46 ± 0.24 | -1.13 ± 0.24 |
| UAUCAGCAAUAUUACGUCUU | -1.65 ± 0.082 | -0.155 ± 0.091 |
| UAUCAGCAAUAUUACGUGUA | -0.198 ± 0.069 | 0.204 ± 0.079 |
| UAUCAGCAAUAUUACGUUCA | -0.267 ± 0.11 | 0.345 ± 0.15 |
| UAUCAGCAAUAUUACGUUCG | -0.844 ± 0.085 | 0.113 ± 0.11 |
| UAUCAGCAAUAUUACGUUCU | -2.22 ± 0.11 | -1.03 ± 0.13 |
| UAUCAGCAAUAUUACGUUGA | -2.15 ± 0.18 | -1.95 ± 0.18 |
| UAUCAGCAAUAUUACGUUUG | -1.4 ± 0.068 | -0.266 ± 0.092 |
| UAUGAGCAAUAUUACGAACA | -2.47 ± 0.24 | -0.662 ± 0.14 |
| UAUGAGCAAUAUUACGAUCC | – | -3.06 ± 0.47 |
| UAUGAGCAAUAUUACGAUUA | -0.445 ± 0.094 | 0.467 ± 0.093 |
| UAUGAGCAAUAUUACGAUUG | -1.94 ± 0.17 | -1.11 ± 0.2 |
| UAUGAGCAAUAUUACGCCCA | -2.3 ± 0.27 | 0.171 ± 0.49 |
| UAUGAGCAAUAUUACGCUCG | -2.09 ± 0.21 | -2.2 ± 0.35 |
| UAUGAGCAAUAUUACGGAAA | -1.13 ± 0.49 | – |
| UAUGAGCAAUAUUACGGAUA | -2 ± 0.23 | 0.104 ± 0.21 |
| UAUGAGCAAUAUUACGGCAG | -1.5 ± 0.25 | -0.674 ± 0.27 |
| UAUGAGCAAUAUUACGGCAU | -2.94 ± 0.27 | -2.05 ± 0.41 |
| UAUGAGCAAUAUUACGGGAA | – | -2.7 ± 0.41 |
| UAUGAGCAAUAUUACGGGAC | – | -1.11 ± 0.17 |
| UAUGAGCAAUAUUACGGGAU | -3.06 ± 0.21 | -2.35 ± 0.29 |
| UAUGAGCAAUAUUACGUACC | -2.28 ± 0.46 | -1.86 ± 0.43 |
| UAUGAGCAAUAUUACGUAGG | -4.19 ± 0.34 | -2.41 ± 0.21 |
| UAUGAGCAAUAUUACGUCGC | -4.2 ± 0.39 | -2.45 ± 0.39 |

| Sequence | self-splicing fitness (ln) (30 °C) | self-splicing fitness (ln) (37 °C) |
| --- | --- | --- |
| UAUGAGCAAUAUUACGUGAU | -3.04 ± 0.15 | -2.76 ± 0.25 |
| UAUGAGCAAUAUUACGUGCC | -4.14 ± 0.46 | -2.28 ± 0.31 |
| UAUGAGCAAUAUUACGUUGG | -4.07 ± 0.3 | -2.24 ± 0.22 |
| UAUUAGCAAUAUUACGACGU | -1.02 ± 0.2 | -0.561 ± 0.17 |
| UAUUAGCAAUAUUACGACUC | -2.24 ± 0.21 | -1.08 ± 0.3 |
| UAUUAGCAAUAUUACGAGAU | – | -2.01 ± 0.34 |
| UAUUAGCAAUAUUACGAUCU | -0.883 ± 0.12 | 0.167 ± 0.17 |
| UAUUAGCAAUAUUACGCGGA | -2.1 ± 0.2 | -1.08 ± 0.13 |
| UAUUAGCAAUAUUACGGACG | -0.257 ± 0.11 | 0.171 ± 0.12 |
| UAUUAGCAAUAUUACGGAGA | -2.09 ± 0.25 | -2.18 ± 0.32 |
| UAUUAGCAAUAUUACGGCUG | -0.432 ± 0.079 | 0.0834 ± 0.13 |
| UAUUAGCAAUAUUACGGUUC | -3.84 ± 0.39 | -3 ± 0.29 |
| UAUUAGCAAUAUUACGUAAU | -3.24 ± 0.26 | -1.93 ± 0.24 |
| UAUUAGCAAUAUUACGUACG | -0.0813 ± 0.071 | -0.262 ± 0.09 |
| UCAAAGCAAUAUUACGAGCC | -2.27 ± 0.23 | – |
| UCAAAGCAAUAUUACGAUAA | -1.43 ± 0.11 | -0.335 ± 0.13 |
| UCAAAGCAAUAUUACGAUGU | -1.09 ± 0.074 | -0.341 ± 0.081 |
| UCAAAGCAAUAUUACGAUUG | -2.46 ± 0.14 | -0.73 ± 0.11 |
| UCAAAGCAAUAUUACGCACG | -1.18 ± 0.11 | -0.632 ± 0.16 |
| UCAAAGCAAUAUUACGCAGU | -3.16 ± 0.19 | -3.42 ± 0.31 |
| UCAAAGCAAUAUUACGCCGA | -1.49 ± 0.15 | -0.381 ± 0.12 |
| UCAAAGCAAUAUUACGCGGC | -3.92 ± 0.3 | -2.59 ± 0.23 |
| UCAAAGCAAUAUUACGCUAA | -3.48 ± 0.25 | -2.87 ± 0.27 |
| UCAAAGCAAUAUUACGCUUG | -2.27 ± 0.14 | -2.58 ± 0.26 |
| UCAAAGCAAUAUUACGGCCA | -0.546 ± 0.13 | -0.278 ± 0.11 |

| Sequence | self-splicing fitness (ln) (30 °C) | self-splicing fitness (ln) (37 °C) |
| --- | --- | --- |
| UCAAAGCAAUAUUACGGUGG | -1.79 ± 0.058 | -1.05 ± 0.083 |
| UCAAAGCAAUAUUACGUACG | -0.29 ± 0.067 | 0.0719 ± 0.077 |
| UCAAAGCAAUAUUACGUACU | -3.16 ± 0.45 | -2.28 ± 0.37 |
| UCAAAGCAAUAUUACGUGCG | -1.13 ± 0.045 | -0.496 ± 0.064 |
| UCACAGCAAUAUUACGACGG | -0.234 ± 0.066 | 0.353 ± 0.086 |
| UCACAGCAAUAUUACGACUU | -3.28 ± 0.2 | -1.65 ± 0.12 |
| UCACAGCAAUAUUACGAGAG | -3.55 ± 0.16 | -2.63 ± 0.19 |
| UCACAGCAAUAUUACGAGCG | -0.409 ± 0.064 | -0.305 ± 0.093 |
| UCACAGCAAUAUUACGCUAC | -3.12 ± 0.19 | -2.77 ± 0.21 |
| UCACAGCAAUAUUACGGAUG | -2.4 ± 0.12 | -1.89 ± 0.13 |
| UCACAGCAAUAUUACGGGAU | -3.45 ± 0.23 | -2.36 ± 0.24 |
| UCACAGCAAUAUUACGGGUG | -2.37 ± 0.09 | -1.67 ± 0.083 |
| UCACAGCAAUAUUACGGGUU | -3.77 ± 0.16 | -2.33 ± 0.12 |
| UCACAGCAAUAUUACGGUCU | -1.01 ± 0.081 | -1.67 ± 0.11 |
| UCACAGCAAUAUUACGUCCC | -4.32 ± 0.42 | -2.01 ± 0.45 |
| UCACAGCAAUAUUACGUGGU | -4.05 ± 0.19 | -3.15 ± 0.18 |
| UCACAGCAAUAUUACGUGUC | -3.55 ± 0.2 | -2.6 ± 0.2 |
| UCACAGCAAUAUUACGUUAC | -3.74 ± 0.23 | -2.06 ± 0.16 |
| UCACAGCAAUAUUACGUUAG | -2.17 ± 0.077 | -1.49 ± 0.088 |
| UCACAGCAAUAUUACGUUCU | -3.63 ± 0.22 | -1.5 ± 0.13 |
| UCAGAGCAAUAUUACGAACC | – | -1.15 ± 0.42 |
| UCAGAGCAAUAUUACGAACG | -3.12 ± 0.32 | -1.85 ± 0.3 |
| UCAGAGCAAUAUUACGACAC | -2.63 ± 0.37 | -0.191 ± 0.45 |
| UCAGAGCAAUAUUACGACGG | -0.865 ± 0.14 | 0.304 ± 0.18 |
| UCAGAGCAAUAUUACGAGCA | – | -2.06 ± 0.48 |

| Sequence | self-splicing fitness (ln) (30 °C) | self-splicing fitness (ln) (37 °C) |
| --- | --- | --- |
| UCAGAGCAAUAUUACGAUCG | – | -2.39 ± 0.33 |
| UCAGAGCAAUAUUACGCCCA | -2.06 ± 0.44 | – |
| UCAGAGCAAUAUUACGCGAA | -2.61 ± 0.21 | -3.1 ± 0.29 |
| UCAGAGCAAUAUUACGCGCG | -2.44 ± 0.19 | -1.79 ± 0.18 |
| UCAGAGCAAUAUUACGCUAU | -3.45 ± 0.48 | -2.08 ± 0.41 |
| UCAGAGCAAUAUUACGCUUA | -2.91 ± 0.24 | -2.48 ± 0.18 |
| UCAGAGCAAUAUUACGCUUC | -1.74 ± 0.24 | -2.73 ± 0.48 |
| UCAGAGCAAUAUUACGGACU | – | -1.77 ± 0.3 |
| UCAGAGCAAUAUUACGGGCC | -3.69 ± 0.44 | – |
| UCAGAGCAAUAUUACGGGUC | -3.97 ± 0.34 | -2.12 ± 0.32 |
| UCAGAGCAAUAUUACGGUGC | -3.88 ± 0.35 | -0.485 ± 0.15 |
| UCAGAGCAAUAUUACGUCAG | -2.84 ± 0.3 | -2.41 ± 0.29 |
| UCAGAGCAAUAUUACGUCCU | -3.91 ± 0.42 | – |
| UCAGAGCAAUAUUACGUUGC | – | -1.48 ± 0.32 |
| UCAGAGCAAUAUUACGUUUU | -3.84 ± 0.26 | -3.13 ± 0.26 |
| UCAUAGCAAUAUUACGACGA | -0.24 ± 0.096 | -0.532 ± 0.11 |
| UCAUAGCAAUAUUACGACUC | -2.18 ± 0.37 | -1.46 ± 0.37 |
| UCAUAGCAAUAUUACGAGAC | -2.84 ± 0.31 | -2.03 ± 0.34 |
| UCAUAGCAAUAUUACGAGCG | -1.95 ± 0.12 | -0.509 ± 0.13 |
| UCAUAGCAAUAUUACGAGCU | -2.69 ± 0.26 | -2.72 ± 0.3 |
| UCAUAGCAAUAUUACGAGGA | -3.42 ± 0.34 | -0.473 ± 0.21 |
| UCAUAGCAAUAUUACGAGGG | -2.24 ± 0.21 | -1.83 ± 0.29 |
| UCAUAGCAAUAUUACGAUUA | -0.984 ± 0.17 | -0.81 ± 0.25 |
| UCAUAGCAAUAUUACGCCUC | -2.43 ± 0.31 | -1.04 ± 0.2 |
| UCAUAGCAAUAUUACGCGAC | – | -1.46 ± 0.46 |
